These results are taken from publication PMC11417369, “DNA sequence and chromatin differentiate sequence-specific transcription factor binding in the human malaria parasite Plasmodium falciparum”.

Positions count from the first letter of the chain named.

First the molecules themselves.
T1: PF3D7_0420300 D1 (Plasmodium falciparum, UniProt Q8I1N6 1956-2015)
T1 sequence: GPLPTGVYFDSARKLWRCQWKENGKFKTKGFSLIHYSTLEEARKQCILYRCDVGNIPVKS

B1: CACACA_site370 (dsDNA)
DNA 1: ATCAAGCACCAACACACACACACACCCCCACCCACA
DNA 2: TGTGGGTGGGGGTGTGTGTGTGTGTTGGTGCTTGAT
B2: CACACA_site7867 (dsDNA)
DNA 1: AAGGATATAACATACACACACACACGGATATAAATA
DNA 2: TATTTATATCCGTGTGTGTGTGTATGTTATATCCTT
B3: CACACA_site757 (dsDNA)
DNA 1: AAACTTGACAGACACACACACACATATATAAAAAAA
DNA 2: TTTTTTTATATATGTGTGTGTGTGTCTGTCAAGTTT
B4: CACACA_site399 (dsDNA)
DNA 1: AACAACCAAAGGCACACACACAAAAAAAAAAATATA
DNA 2: TATATTTTTTTTTTTGTGTGTGTGCCTTTGGTTGTT
B5: CACACA_site6531 (dsDNA)
DNA 1: AATAAATTTAGACACACACACACATATAAATAAATA
DNA 2: TATTTATTTATATGTGTGTGTGTGTCTAAATTTATT
B6: CACACA_site748 (dsDNA)
DNA 1: ATTTTTTTTTTTTCCTTACACACATATTTCATTTTA
DNA 2: TAAAATGAAATATGTGTGTAAGGAAAAAAAAAAAAT
B7: CACACA_site7142 (dsDNA)
DNA 1: TAGTAAAAGATATACACACACCAAAAAATATAATTA
DNA 2: TAATTATATTTTTTGGTGTGTGTATATCTTTTACTA
B8: CACACA_site2053 (dsDNA)
DNA 1: AAATTTATTATGAACATACACACAAAAAAAAAAAGT
DNA 2: ACTTTTTTTTTTTGTGTGTATGTTCATAATAAATTT
B9: CACACA_site7644 (dsDNA)
DNA 1: AAAAAATACAGACACACACACACACGCATATAAATA
DNA 2: TATTTATATGCGTGTGTGTGTGTGTCTGTATTTTTT
B10: CACACA_site9118 (dsDNA)
DNA 1: AAAAAAAACGCACATACACACACACCCATATATATA
DNA 2: TATATATATGGGTGTGTGTGTATGTGCGTTTTTTTT
B11: CACACA_site5776 (dsDNA)
DNA 1: ATTATAAATACACGCACACACACTTATATATATATA
DNA 2: TATATATATATAAGTGTGTGTGCGTGTATTTATAAT
B12: CACACA_site9187 (dsDNA)
DNA 1: AAAAAAAAAATACATACACACACACCCACCCATATA
DNA 2: TATATGGGTGGGTGTGTGTGTATGTATTTTTTTTTT
B13: CACACA_site7364 (dsDNA)
DNA 1: AAAAAAAAAAAAAACACACACACACGCATACACATA
DNA 2: TATGTGTATGCGTGTGTGTGTGTTTTTTTTTTTTTT
B14: CACACA_site6794 (dsDNA)
DNA 1: B13 DNA 1 with C33A, T35A, A36T
DNA 2: B13 DNA 2 with T1A, A2T, G4T
B15: CACACA_site7188 (dsDNA)
DNA 1: GTGCATAAATCATACACACACACATATATAAATATA
DNA 2: TATATTTATATATGTGTGTGTGTATGATTTATGCAC
B16: CACACA_site466 (dsDNA)
DNA 1: CAAAAAAAATAAAACACACACACAAAAAAATAAAAA
DNA 2: TTTTTATTTTTTTGTGTGTGTGTTTTATTTTTTTTG
B17: CACACA_site8723 (dsDNA)
DNA 1: TATTCCCCCCAACACACACACACACCGACATACCAC
DNA 2: GTGGTATGTCGGTGTGTGTGTGTGTTGGGGGGAATA
B18: CACACA_site8411 (dsDNA)
DNA 1: AAAAAAAAAAAACACACACACACACCGACAAAATAT
DNA 2: ATATTTTGTCGGTGTGTGTGTGTGTTTTTTTTTTTT
B19: CACACA_site6496 (dsDNA)
DNA 1: TATTAAACTTGACACACACACACACGCATATATAAA
DNA 2: TTTATATATGCGTGTGTGTGTGTGTCAAGTTTAATA
B20: CACACA_site1251 (dsDNA)
DNA 1: TACAATTTAAAACACACACACAATAATACATATATA
DNA 2: TATATATGTATTATTGTGTGTGTGTTTTAAATTGTA
B21: CACACA_site2906 (dsDNA)
DNA 1: AATATAAATAAACACACACACATATATATATATATT
DNA 2: AATATATATATATATGTGTGTGTGTTTATTTATATT
B22: CACACA_site4903 (dsDNA)
DNA 1: AAAAACCATTGGCACACACACATAATATATAATATA
DNA 2: TATATTATATATTATGTGTGTGTGCCAATGGTTTTT
B23: CACACA_site8724 (dsDNA)
DNA 1: AACACATACATATATACACACACAAAATAATAAAAT
DNA 2: ATTTTATTATTTTGTGTGTGTATATATGTATGTGTT
B24: CACACA_site5111 (dsDNA)
DNA 1: TATTTATAAATTTACACACACACATGGGAACATAAA
DNA 2: TTTATGTTCCCATGTGTGTGTGTAAATTTATAAATA
B25: CACACA_site6364 (dsDNA)
DNA 1: ATAATCCTTAGACACACACACACACGAATAAATAAA
DNA 2: TTTATTTATTCGTGTGTGTGTGTGTCTAAGGATTAT
B26: CACACA_site4117 (dsDNA)
DNA 1: TATATATATATAGACACACACACACCCATATATATA
DNA 2: TATATATATGGGTGTGTGTGTGTCTATATATATATA
B27: CACACA_site7431 (dsDNA)
DNA 1: CTTGTCATTTTGCACACACACATGTATAGGTTATTA
DNA 2: TAATAACCTATACATGTGTGTGTGCAAAATGACAAG
B28: CACACA_site5271 (dsDNA)
DNA 1: TATAAATACAGATACACACACACACCGATATATATA
DNA 2: TATATATATCGGTGTGTGTGTGTATCTGTATTTATA
B29: CACACA_site1104 (dsDNA)
DNA 1: AAAAAAAAAAAAAACACACACACAAAAAAAAATATA
DNA 2: TATATTTTTTTTTGTGTGTGTGTTTTTTTTTTTTTT
B30: CACACA_site6309 (dsDNA)
DNA 1: ACATCAAGCAGACACACACACACACGCACACGCACA
DNA 2: TGTGCGTGTGCGTGTGTGTGTGTGTCTGCTTGATGT
B31: CACACA_site5427 (dsDNA)
DNA 1: TAATTATGCGGACACACACACACACCCAACTAAAAA
DNA 2: TTTTTAGTTGGGTGTGTGTGTGTGTCCGCATAATTA
B32: CACACA_site2569 (dsDNA)
DNA 1: B31 DNA 1 with G10A
DNA 2: B31 DNA 2 with C27T
B33: CACACA_site7579 (dsDNA)
DNA 1: TATACACATATATACACACACATATATAAATAAATA
DNA 2: TATTTATTTATATATGTGTGTGTATATATGTGTATA
B34: CACACA_site6342 (dsDNA)
DNA 1: AAAAAAAACAGACACACACACAAATATTTATATATC
DNA 2: GATATATAAATATTTGTGTGTGTGTCTGTTTTTTTT
B35: CACACA_site494 (dsDNA)
DNA 1: CATACATAGAAACACACACACACACCCACCCACAAA
DNA 2: TTTGTGGGTGGGTGTGTGTGTGTGTTTCTATGTATG
B36: CACACA_site8200 (dsDNA)
DNA 1: AAACTTAATATCGGTACACACACAAGATAAGAATTA
DNA 2: TAATTCTTATCTTGTGTGTGTACCGATATTAAGTTT
B37: CACACA_site8978 (dsDNA)
DNA 1: TGAGTCTTTTACATTGCACACACATTTCTTTCCTTT
DNA 2: AAAGGAAAGAAATGTGTGTGCAATGTAAAAGACTCA
B38: CACACA_site8938 (dsDNA)
DNA 1: TAATTAAATACATTAACACACACACTAATATATACA
DNA 2: TGTATATATTAGTGTGTGTGTTAATGTATTTAATTA
B39: CACACA_site710 (dsDNA)
DNA 1: AAAAAAAGATTATACACACACATATATAAACCTACA
DNA 2: TGTAGGTTTATATATGTGTGTGTATAATCTTTTTTT
B40: CACACA_site5102 (dsDNA)
DNA 1: GAGAAAAATAAATACACACACATAAATAAATACATA
DNA 2: TATGTATTTATTTATGTGTGTGTATTTATTTTTCTC

This data set concerns the target T1, PF3D7_0420300 D1. The data set is described as follows: gcPBM; about 25 ug protein; PBS, 1% milk, 0.2 mg/ml BSA, salmon testes DNA, 0.03% Triton X-100. The settings on record: tags: N-terminal GST (pGEX-4T-1), kept; label: surface-attached array probe.
For the molecule B1, the binding signal was 10.8 ln median PBM intensity, better of two orientations. Take B2: the binding signal is 10.4 ln median PBM intensity, better of two orientations.

For the molecule B3, the binding signal is 10.1 ln median PBM intensity, better of two orientations.

B4: the binding signal was 10 ln median PBM intensity, better of two orientations. For the molecule B5, the binding signal was 10.2 ln median PBM intensity, better of two orientations. As to B6, the binding signal was 9.99 ln median PBM intensity, better of two orientations. For the molecule B7, the binding signal is 10 ln median PBM intensity, better of two orientations. Take B8: the binding signal was 9.98 ln median PBM intensity, better of two orientations. Turning to B9, the binding signal was 10.2 ln median PBM intensity, better of two orientations. In the case of B10 it was 10 ln median PBM intensity, better of two orientations; in that of B11, 9.96 ln median PBM intensity, better of two orientations.

In the case of B12, the binding signal was 10.4 ln median PBM intensity, better of two orientations. For the molecule B13, the binding signal was 10.2 ln median PBM intensity, better of two orientations. The same measure for B14: 10.1 ln median PBM intensity, better of two orientations. In the case of B15 it was 9.95 ln median PBM intensity, better of two orientations; in that of B16, 10.2 ln median PBM intensity, better of two orientations. For the molecule B17, the binding signal is 10.8 ln median PBM intensity, better of two orientations. Regarding B18, the binding signal was 10.2 ln median PBM intensity, better of two orientations. Take B19: the binding signal is 10.3 ln median PBM intensity, better of two orientations. B20: the binding signal is 10.1 ln median PBM intensity, better of two orientations. With B21, the binding signal is 10.1 ln median PBM intensity, better of two orientations. Turning to B22, the binding signal was 10 ln median PBM intensity, better of two orientations.

On to B23, for which the binding signal is 10.1 ln median PBM intensity, better of two orientations. Take B24: the binding signal was 10.1 ln median PBM intensity, better of two orientations.

B25: the binding signal was 10.3 ln median PBM intensity, better of two orientations.

As for B26, the binding signal was 10 ln median PBM intensity, better of two orientations. For B27, the binding signal was 10.1 ln median PBM intensity, better of two orientations. The same measure for B28: 10.2 ln median PBM intensity, better of two orientations. With B29, the binding signal is 10.1 ln median PBM intensity, better of two orientations.

B30: the binding signal is 10.4 ln median PBM intensity, better of two orientations.

On to B31, for which the binding signal is 10.1 ln median PBM intensity, better of two orientations. As for B32, the binding signal is 10.1 ln median PBM intensity, better of two orientations.

As to B33, the binding signal was 9.98 ln median PBM intensity, better of two orientations. Consider B34, for which the binding signal was 10.2 ln median PBM intensity, better of two orientations.

Turning to B35, the binding signal was 10.4 ln median PBM intensity, better of two orientations. For the molecule B36, the binding signal is 9.96 ln median PBM intensity, better of two orientations. The same measure for B37: 9.97 ln median PBM intensity, better of two orientations; for B38: 10 ln median PBM intensity, better of two orientations. Turning to B39, the binding signal was 10.1 ln median PBM intensity, better of two orientations. Turning to B40, the binding signal is 10.2 ln median PBM intensity, better of two orientations.
